For this test, the target named is biotin-Aβ42 (UniProt P05067 672-713, biotin (site not stated)). Put plainly: single-molecule TIRF microscopy.
Sequence of biotin-Aβ42 (P05067 672-713): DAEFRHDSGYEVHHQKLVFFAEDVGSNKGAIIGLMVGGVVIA

B1: Cy3-labeled ceruloplasmin (enzyme, human, UniProt P00450 20-1065, looked up)
chain: KEKHYYIGIIETTWDYASDHGEKKLISVDTEHSNIYLQNGPDRIGRLYKKALYLQYTDETFRTTIEKPVWLGFLGPIIKAETGDKVYVHLKNLASRPYTFHSHGITYYKEHEGAIYPDNTTDFQRADDKVYPGEQYTYMLLATEEQSPGEGDGNCVTRIYHSHIDAPKDIASGLIGPLIICKKDSLDKEKEKHIDREFVVMFSVVDENFSWYLEDNIKTYCSEPEKVDKDNEDFQESNRMYSVNGYTFGSLPGLSMCAEDRVKWYLFGMGNEVDVHAAFFHGQALTNKNYRIDTINLFPATLFDAYMVAQNPGEWMLSCQNLNHLKAGLQAFFQVQECNKSSSKDNIRGKHVRHYYIAAEEIIWNYAPSGIDIFTKENLTAPGSDSAVFFEQGTTRIGGSYKKLVYREYTDASFTNRKERGPEEEHLGILGPVIWAEVGDTIRVTFHNKGAYPLSIEPIGVRFNKNNEGTYYSPNYNPQSRSVPPSASHVAPTETFTYEWTVPKEVGPTNADPVCLAKMYYSAVEPTKDIFTGLIGPMKICKKGSLHANGRQKDVDKEFYLFPTVFDENESLLLEDNIRMFTTAPDQVDKEDEDFQESNKMHSMNGFMYGNQPGLTMCKGDSVVWYLFSAGNEADVHGIYFSGNTYLWRGERRDTANLFPQTSLTLHMWPDTEGTFNVECLTTDHYTGGMKQKYTVNQCRRQSEDSTFYLGERTYYIAAVEVEWDYSPQREWEKELHHLQEQNVSNAFLDKGEFYIGSKYKKVVYRQYTDSTFRVPVERKAEEEHLGILGPQLHADVGDKVKIIFKNMATRPYSIHAHGVQTESSTVTPTLPGETLTYVWKIPERSGAGTEDSACIPWAYYSTVDQVKDLYSGLIGPLIVCRRPYLKVFNPRRKLEFALLFLVFDENESWYLDDNIKTYSDHPEKVNKDDEEFIESNKMHAINGRMFGNLQGLTMHVGDEVNWYLMGMGNEIDLHTVHFHGHSFQYKHRGVYSSDVFDIFPGTYQTLEMFPRTPGIWLLHCHVTDHIHAGMETTYTVLQNEDTKSG
modifications: Cy3 label (site not stated)
B1: the “half-lifetime of transient binding” value was around 14.6 s.
